Experimental data from US20070286806A1, “Methods and Compositions for Modulating a Steroid Receptor” (Mount Sinai Hospital, priority 2004, published 2007).

Tested on: PRA and PRB protein
Test: PR protein level by western blot of whole cell lysate after co-transfection in SHM cells
Format: cell-based
Procedure: FIG. 5. […] (A) SHM cells were transient transfected (eighteen hours) with PRA or PRB expression vector with or without increasing doses (0.2, 0.5, 1.0 and 2.0 μg) of His-PSF vector as indicated. Whole cell lysate was analyzed by western blot with PR or His tag antibody. NS=non-specific binding. (B) SHM cells were transient transfected (eighteen hours) with PRA or PRB expression vector together with 2.0 μg His tagged PSF1-707 or truncated PSF1-662. Culture media was added with or without 60 nM MG132 (Z-Leu-Leu-Leu-a1) as indicated for another 6 hours. Whole cell lysate was analyzed by western blot with PR or His tag antibody. Gβ protein was also detected as the cell lysate loading control.
For immunoprecipitation of the endogenous PR and PSF, T47D cells cultured in 150 mm dishes were lysed in 800 μl NETN buffer containing 150 mM NaCl plus protease inhibitor cocktail. Cell lysate were then incubated with 5 μg of PR or PSF, or control mouse IgG at 4° C. overnight, followed by the addition of 30 μl of protein A/G PLUS-agarose beads (Santa Cruz) for another two hours at 4° C. Resins were washed with NETN containing 250 mM NaCl and eluted with 1×Laemmli buffer. The eluted proteins along with the whole cell extract were western blotted by PR or PSF antibody. • GST pulldown assay: GST pulldown assay was performed as previously described (20). GST and its fusion proteins were first immobilized to glutathione-Sepharose 4B affinity matrix. The matrix was then incubated at 4° C. overnight with rabbit reticulocyte lysate (Promega) containing PR or His-PSF transcribed and translated in presence of ^35S methionine. The matrix was washed three times with cold NETN buffer before adding 1 ×Laemmli buffer to elute associated proteins. The eluted proteins were separated on 10% SDS-PAGE gel. Gels were treated with Enhancer (NEN, Boston, US) dried and analyzed by autoradiography. • Cell culture and transient transfection: SHM cells and 293T cells were maintained in DMEM plus 5% FCS (Sigma) as described before (22). For experiments involving steroid exposure, the medium was substituted with phenol red free DMEM containing 5% charcoal-treated fetal bovine serum (Hyclone, Utah, USA). Transfection was performed according to manufacturers protocol (Fementas). Cells were seeded at a density to achieve 60-80% confluency the following day. The DNA and transfection reagent were mixed and added to the medium. Cell lysates were collected at least 30 hours after transfection. For luciferase assay, cells were collected in 200 μl of lysis buffer (Promega) of which 10μl was used for the luciferase and β-Gal activity assays respectively. Luciferase activity was determined by using the luciferin reagent (Promega) according to manufacture's protocol. […]

B1: polypyrimidine tract binding protein-associated splicing factor (protein)
chain: MSRDRFRSRGGGGGGFHRRGGGGGRGGLHDFRSPPPGMGLNQNRGPMGPGPGQSGPKPPIPPPPPHQQQQQPPPQQPPPQQPPPHQPPPHPQPHQQQQPPPPPQDSSKPVVAQGPGPAPGVGSAPPASSSAPPATPPTSGAPPGSGPGPTPTPPPAVTSAPPGAPPPTPPSSGVPTTPPQAGGPPPPPAAVPGPGPGPKQGPGPGGPKGGKMPGGPKPGGGPGLSTPGGHPKPPHRGGGEPRGGRQHHPPYHQQHHQGPPPGGPGGRSEEKISDSEGFKANLSLLRRPGEKTYTQRCRLFVGNLPADITEDEFKRLFAKYGEPGEVFINKGKGFGFIKLESRALAEIAKAELDDTPMRGRQLRVRFATHAAALSVRNLSPYVSNELLEEAFSQFGPIERAVVIVDDRGRSTGKGIVEFASKPAARKAFERCSEGVFLLTTTPRPVIVEPLEQLDDEDGLPEKLAQKNPMYQKERETPPRFAQHGTFEYEYSQRWKSLDEMEKQQREQVEKNMKDAKDKLESEMEDAYHEHQANLLRQDLMRRQEELRRMEELHNQEMQKRKEMQLRQEEERRRREEEMMIRQREMEEQMRRQREESYSRMGYMDPRERDMRMGGGGAMNMGDPYGSGGQKFPPLGGGGGIGYEANPGVPPATMSGSMMGSDMRTERFGQGGAGPVGGQGPRGMGPGTPAGYGRGREEYEGPNKKPRF
notes: expressed from transfected His-PSF vector or in vitro translated
In the case of B1, the “PR proteins after co-transfection with PRB/PRA” value (after 24 hours) is reported as “total loss of PR proteins” and the “level of PRA and PRB protein” value (increasing dose of PSF expression vector, constant dose of PR vector) is reported as “decrease”.
